These results are taken from a protein production outcome set (Wang et al. 2014).

A short description of this data set: label from the status in PepcDB records.
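Also: failed if final PepcDB status was selected cloned or expressed and not failed if soluble or beyond.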

On to “MKRDHHQFQGRLSNHGTSSSSSSISKDKMMMVKKEEDGGGNMDDELLAVLGYKVRSSEMAEVALKLEQLETMMSNVQEDGLSHLATDTVHYNPSELYSWLDNMLSELNPPPLPASSNGLDPVLPSPEICGFPASDYDLKVIPGNAIYQFPAIDSSSSSNNQNKRLKSCSSPDSMVTSTSTGTQIGGVIGTTVTTTTTTTTAAGESTRSVILVDSQENGVRLVHALMACAEAIQQNNLTLAEALVKQIGCLAVSQAGAMRKVATYFAEALARRIYRLSPPQNQIDHCLSDTLQMHFYETCPYLKFAHFTANQAILEAFEGKKRVHVIDFSMNQGLQWPALMQALALREGGPPTFRLTGIGPPAPDNSDHLHEVGCKLAQLAEAIHVEFEYRGFVANSLADLDASMLELRPSDTEAVAVNSVFELHKLLGRPGGIEKVLGVVKQIKPVIFTVVEQESNHNGPVFLDRFTESLHYYSTLFDSLEGVPNSQDKVMSEVYLGKQICNLVACEGPDRVERHETLSQWGNRFGSSGLAPAHLGSNAFKQASMLLSVFNSGQGYRVEESNGCLMLGWHTRPLITTSAWKLSTAAY”, for which the protein production entry is “failed”.
The entry for “MKRFQKQILLRRILQMDYKQIAKEVIEALGGRENVNSVAHCATRLRVMVKDENKINKEKAENIEKVQGAFFNSGQYQMIFGTGTVNKIYDEVVAQGLPTASKDEQKAEAAKQGNWFQRAIRSFGDVFVPLLPAIVATGLFMGIRGAINNDTVLALFGTTSKAFAATDFYTYTVVLTDTAFAFFPALICWSAFNVFGGSPLLGLVLGLMMVNNALPNAWDVVSGAAKPIYFFDFIPVVGYQNSVLPAFFVGLIGAKFEQWVRKWVPDVLDLLLRPLVVFAVMSALALFIIGPVFHTVESYVLAGTEWILALPFGLAGLVLGGIHQIIVVTGVHHVFNLLEANLISNTGKDPLNAIITAAMTAQAGATLAVGVKTKDSKLKALAFPASLSAVLGITEPAIFGVNLRFGKPFIMGLIAGAAGGWLASILNLAGTGFGVTIVPGTLLYLNGQVLKYVIMVLVTLALGFALTWIFGYKEEEVEAQTEVVAEDIASAGSAPVALQAETIAAPLKGEVVALENVNDPVFSSGAMGKGAAIKPSGNRVVAPFDGEVQIAFPTGHAYGLKSDKGAEVLIHIGIDTVSLDGKGFDAKVQANQRVKKGDVLATFDSSVITEAGLDDTTMVIVTNTADYEDVSLVATGSVAEGGDFIAVK” is “failed”.
The entry for “MKRIILLAFLCTTTLVMAQRINHVQEAIANYDYEAALTLIAKEKPTIPLLLQKGKAQRGLGMNTEALSTYQEIIANDTANTRAYIEAAECCRSLAKYQQALKYYEQALDLNPENKYVRIQYIGLLLSLQKFQDALGESSLMTEKDSSAIALHLQAQSFEGMGELLPATGCYYNIQEKYPDDYLAAAKLAALNIAGSYFNEAIEATEKYRQTDTTNIAVNRQNALAYCLNKDYPTAIQRYEYLVSQGDSSFHTCYYLGISYYAEEKYYEAHDFLEAARKHDPENVNLLYYLGRACAKTSWKKLGVEYLEKALDLTIPKDSNMVRLYIGMTDCYKMAQMPKEQIESIRERYRKYDKQNHKLLYDMAFIYFYSLKDKKNTERCLEAFLKTRPKEDKEEEAKLNERGELVLGTKNYYNAAANWLKDIQSKQKIEDFFLGGNVPAQKPE” is “failed”; for “MKRKLVTSALPYVNNFPHLGNLIQVLSADVFARFCRLKEYETLYICGTDEYGTATETKALEEKKSPEELCSFYHAIHAEIYNWFNIAFDYFGRTSTPQQTEITQGIFNDLDKNGYITEHTIEQLYCPSCKRFLADRYVLGTCPSCSYDGARGDQCEHCGKLLDPTDLKEPRCSSCGAAPEVRSTTHLYINLPKIVPEYEKWMPKTAEEGRWSNNALQMSKSWLRDGLQERAITRDLKWGIPVPKKGFEDKVFYVWFDAPIGYISITKCWADLAGKDWKAWWLDQNDVELFQFIGKDNIPFHTVIFPCSLIGSGKNWTKLFHMSGTEYLNYENGKFSKSKGVGVFGNDAKESGIPADMWRFYIFYNRPEKNDTQFTWKDFQERVNSELIGNLCNLVNRTATFIHRYYDGKIPQVDGAKSGREDIKSMVKSLREAASASFKKITELSDWAELRDSFHEAFALSSVANKAFQDGEPWKRRETDPEYAEALMSELCYLIKDILILIHPYMPQYADQAAGFFGQKIWSGNIFDGKAPQFNKPEGSFLSWKNLGEREGLKTVENPVIIFKTLDNKVIDAYRERYSGSQKDRKKSEKGCSACKDSGSSKSDAAASSAKPEVKLSPAELFSKKIALKTAKIISVERHPDADKLYIEKLDDGSGEERTILSGLVPFLKEDEILGKTVIIADNLKPRKMRGIESKGMLLAASWYDEEEKEHVELLQAPWAAPGTPVILEGDADISDPEAVKAFYAQKPAAIDADTFFAAPILIEDYIPKIEGKKLLVAGKEMKLEKVKTGEAG” it is “failed”.
The entry for “MKRKQESKGAGEKRQGAGGRGQGEKKQGKQGRQGRQGRQGEKSPVPSPQSPIPNPQFTTPNPDEWLQIGKIVSAQGLSGEVRVYPDSDFPERFEVPGTRWLLRPGQTEPQPIELLHGRYLENKNLYVLQLAGVENRSQSEELRGCMLFVPASDRPELGEDEYHVVDLIGMEVFLQASGDLVGAVVDVIPAGNDLLEVSLHEPVTSDKKPKTVLIPFVKAIAPVVDLQTRRIEITPPPGLLELGSGV” is “failed”; for “MKRLLERSHALLTAPVGATPRVLALVAALLVVPTYVAPLWNLTMFAPQYGDGLRLDIYSYKLEGGNHGQDLKEINLLNHYIGMHDLAEEDFREFKWMPFVMGGLALVFLRAAVMGRVLDLLDSLVVFTWFGLFSLWSFGYKLYSYGHDLAPGAPVKVPPFMPPMIGSAQLANFEVYSYPGLGSYALFAVGLALAVALALGVRATLRRSAAAPLPRGGP” it is “failed”; for “MKRLMFIGPSQCGKTSLTQSLRGEALHYKKTQAIEWSPMAIDTPGEYLENRCLYSALLTSACEADVIALVLNADAQWSPFSPGFTAPMNRPTIGLVTKADLAEPQRISLVAEWLTQAGAQQIFITSALNNSGLDAVLDFLNSKEPLCLTKLEHHHHHH” it is “not failed”.
Consider “MKRLSITVRLTLLFILLLSVAGAGIVWTLYNGLASELKWRDDTTLINRTAQIKQLLIDGVNPDTLPVYFNRMMDVSQDILIIHGDSINKIVNRTNVSDGMLNNIPASETISAAGIYRSIINDTEIDALRINIDEVSPSLTVTVAKLASARHNMLEQYKINSIIICIVAIVLCSVLSPLLIRTGLREIKKLSGVTEALNYNDSREPVEVSALPRELKPLGQALNKMHHALVKDFERLSQFADDLAHELRTPINALLGQNQVTLSQTRSIAEYQKTIAGNIEELENISRLTENILFLARADKNNVLVKLDSLSLNKEVENLLDYLEYLSDEKEICFKVECNQQIFADKILLQRMLSNLIVNAIRYSPEKSRIHITSFLDTNSYLNIDIASPGTKINEPEKLFRRFWRGDNSRHSVGQGLGLSLVKAIAELHGGSATYHYLNKHNVFRITLPQRN”, for which the protein production result is “failed”.
As for “MKRLSLLAATAAFLLASPALAESPFWPVQPKNGPVAAELRGAWKSRGYGWIVQFGPDGPQLFHTAGGACYPDPRREPDPDGVLALWRAEGPGVISLTGDPVGTRYQFDRLPNLPTDCISAGGWTPDRIVAFAADTFAELYPRSAERKLDWPARKAKALTQVGPNATDDQLWLAMAGLLSGLDDPHVELHGMVQGARRDLEPGESPTLMRVRAADPSGDERGWLQAYREGILTGLLQGKGRQAANNRIFWGRVDDVGYLNVLTMGAFARNAAPDDPRPLDAVLDEALSAFVGAKAVVVDVSNNRGGYDIISRRIAARFTAQPRVAYAKVPVGAKAPPQVIKVEPSGAVGFTGPVYVVTSDITVSAGETFTLMMKALPNVTLVGGTTRGAFSDQLPKPLPNGWTLALPAELYRTADGRDLEGRGLAPTVPMAVFPDSDLMGGHAKALSSLFATIREGAAAGATR”, the protein production result was “failed”.
The entry for “MKRLTPYSWLILIIFSSCLTGNKVASTDKQIESLLSQMTLEEKIGMLHSNTMFSSTGVPRLGIPDLHYSDGPHGVRFEGVANGWESARWDNDACSYLPALSALASTWNRDLAQLYGEVLGAECKARGKHVSLAPGVNIHRSLLNGRNWEYFSEDPFFSGELAVPYIQGVQSQGVASCVKHFALNSQAYNQYKVSVEVDERTLHEIYLPAFEAAIQRGGAMAAMAAYNKVRGLWCTESPYLLDTLLRDELGFDGLVVSDWNAVHNTERTALCGMDVEMGTSIKENGKYAFNKYYLADPLLKKVRNGEIPEEAVNKKVRNILKLMIRLDLIGQAPYDTTGMAAKLAIPAHTKAAREIAEESLVLLKNSKDMLPLDPAQYKNVAVIGANATEVFAAGGGSTKLKAKYEVTPLEGLQNLLDGKARIEYAPGYQLSKKAYKVGHWFTNEFDKSDEELYKKAINTAAQAELVIYIGGTSHEHGSDCEGYDKPNLKLPYQQDRLLKGILEVNPNTVVVLISGGPVEIGEWYNDATALLHGSFLGMEGGNALARTLFGEVNPSGKLTTTWCKRLEDMPDHVFGEYPGINDTVRFKEGLMVGYRYFDTYRVVPLFEFGYGLSYTTFTYSNIKMKPVWKDSDTEFAVSFTVTNTGKRYGQEIAQLYLHQNKCSVERPFKELKGFTKVGLKPGESKQVTIKLPRRALQYYDTESKRWKDEPGMFTVLIGASSRDIKLQKDFELKK” is “failed”; for “MKRMLAWLYAPLVFAGFIGAGVWWMSAGPASASGLLGVFGAALGVSFLAEWCLPYEPGWNRSQGDRLRDSLHALVNESLNALGLLALPGLVALLAHDGLWPQGWPLWGQLLLAIVIADCGITLAHYASHRLAWLWRLHAVHHSVQRMYGFNGLLKHPLHQLIEASAGLLPLVLLGIPLPVAQLLALAIAVQLLLQHSNVDMRLGPLRWIFAWAPVHRFHHMKYGRAGDVNFGLFFNLWDWLLGTAFYRDDYCMRQGDLGIGSRADYPVDYWPQLLEPFKAQRYGAEPVVPEQLRRRVRPASEA” it is “failed”.
The entry for “MKRNSSIDLMKSCAIFFVISVHFLLNSGFYDMTIHSTLAIFWIGIRTILITCVPLFLVATGFLMNRKELSAQYVLGIVPVIISYIGISLLVWGVLSLVGKGSDFSTAINGIFDYSTDSYSWYVEMYLGLYLFIPLLNIIWNYKKEIKNYHLYIVFIASLLTFLPSLLNSFGKVIPDYWQICYPVSYYFIGAYLYTYQNEIKKISIGKLVTAFLSALTIFTLTDTFASWNQEFQWLDHNDYFGYQTAIMTVLVIAILWRTPIPKWSVRLLKALSTATLTIYLISDLTDQFVYGFFKHEIPNLSQRVIAGPIIIPVAFTSAALLGIFVGKVLNIPFKRKKERKEN” is “failed”; for “MKRRRRNSKLKFEETSDQSPTSTAEFSFSLTKIAVSQICQSIGYKATDASALNTLTLTTTKFLQSLAELASSFSNTANRTEVNLFDIVNGLQDIALSTSDCFPGGSTVHDIESQCLIKSAVLRNLSDFVTYAPEIPFAKPLPRRERDGSFGGDLDHVAVTRSVDVTSVPAWLPPFPDSSLCSDRCSKDNRSDHLWENSDSVIRREILPESLKSKSGGRLPVMRDKVRFKMEQRDWSSGGDTRLERSRDNNNGESGRDLEVKKKIREGYTYCAGEWPF” it is “failed”.
Consider “MKRSDKYTDDYIEQRYESQRPHYNTYYQPIGKPPKKKKSKRIFLKAIITILILLIIFFGVMYFISSRANVDDLKSIENKSDFVATENMPNYVKGAFISMEDERFYKHHGFDIKGTTRALFSTISDRDVQGGSTITQQVVKNYYYDNERSFTRKIKELFVARKVEKQYSKNQILSFYMNNIYYGDNQYTVEGAANHYFGVTVDKNNSNMSQISVLQSAILASKVNAPSVYDVNDMSNNYINRVKTNLEKMKQQNFISESQYQEAMSQLGN”, for which the protein production entry was “not failed”.
The entry for “MKRSTRFQQRSLFAIGGLGLLIGVAFVLVQFRATLIFTVFLYYASRPIYRKLESVSTPSYFSEYSLPYRRQILAVTTISVFLLPFLLLFTYTLALVVPAVQQFIGQNDLASGYLSAIQSADSGGLPEPIAGLQISDLLDMSPEEIVTILNAPSVRTWIEQTLGTLISSIGVFADVGIQAFLLLSGTYYLLTDGPRLSRWLFDHFDESGVVESYAIAVDDELSSILFGNILNALVTGIIGIVVFSAYNSISPAAVQVPFAPLVGALTGAGSLIPVVGMKIVYFPVGAILTVGAVASGQATAIGYVLLFLILAFVVVDTIPDFLIRPYVSGNRTHVGLLMFAYILGPIVFGAYGIFLGPILLVLVAQFFRTVAPYVATGEPPDQSKLYEY” is “failed”.
